Source: US20240209086A1 (PETMEDIX, published 2024)

Biological target: canine CD3 on canine T cells (canine PBMC) (canine, UniProt P27597 22-202)
Assay: cell-based or functional assay

Sequence of canine CD3 on canine T cells (canine PBMC) (P27597 22-202 limits assumed, chain 1 of 3): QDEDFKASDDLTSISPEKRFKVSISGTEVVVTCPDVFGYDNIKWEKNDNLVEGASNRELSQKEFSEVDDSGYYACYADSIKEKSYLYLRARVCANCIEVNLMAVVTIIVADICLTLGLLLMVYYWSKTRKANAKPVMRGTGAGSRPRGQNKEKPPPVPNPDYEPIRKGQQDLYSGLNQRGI
Sequence of canine CD3 on canine T cells (canine PBMC) (chain, as listed by the source limits assumed, chain 2 of 3): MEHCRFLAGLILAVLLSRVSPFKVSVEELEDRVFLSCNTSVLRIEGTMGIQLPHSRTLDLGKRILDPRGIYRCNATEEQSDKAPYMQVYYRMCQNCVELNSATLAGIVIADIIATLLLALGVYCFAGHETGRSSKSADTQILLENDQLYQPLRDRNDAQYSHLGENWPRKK
Sequence of canine CD3 on canine T cells (canine PBMC) (chain, as listed by the source limits assumed, chain 3 of 3): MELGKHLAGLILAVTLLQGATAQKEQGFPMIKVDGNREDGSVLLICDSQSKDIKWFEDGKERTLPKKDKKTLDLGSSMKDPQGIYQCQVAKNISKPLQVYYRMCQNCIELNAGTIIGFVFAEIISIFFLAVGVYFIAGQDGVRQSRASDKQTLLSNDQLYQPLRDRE

CD25 Activation, Day 6, IS | CD25 Activation, Day 6, PB | CD25 Activation, Day 9, IS | CD25 Activation, Day 9, PB | IFNy Concentration pg/ml, Day 6, IS | IFNy Concentration pg/ml, Day 9, IS | IFNy Concentration pg/ml, Day 9, PB | Ki67 Proliferation, Day 6, IS | Ki67 Proliferation, Day 6, PB | Ki67 Proliferation, Day 9, IS | Binder
8.73 | 22 | 10.9 | 22.9 | 43.4 pg/mL | 162 pg/mL | 2750 pg/mL | 1.27 | 0.48 | 2.06 | PMX179 (monospecific anti-canine CD3, canine IgG-B effector function deficient Fc) (antibody, V domains shown) VH: ELALQESGPGLVRPSQTLSLTCVVSGGSVTRSYYWNWIRQRPGRGLEWMGYWTGTTIYNPAFQGRISITVDTAKNQFSLHLISMTTEDTAVYYCGREGGSSLGAIAYWGQGTRVTVSS VL: SYVLTQLPSKNVTLKQPAHITCGGDNIGSKSVHWYQQKLGQAPVLIIYYDSSRPTGIPERFSGANSGNTATLTISGALAEDEADYYCQVWDSSAKAAVFGGGTHLTVL
13.3 | 13.6 | 10.1 | 13.3 | 63.7 pg/mL | 153 pg/mL | 145 pg/mL | 1.61 | 0.36 | 1.99 | PMX183 (monospecific anti-canine CD3, canine IgG-B effector function deficient Fc) (antibody, V domains shown) VH: ELTLQESGPGLVKPSQTLSLTCVVSGGSVTNSYYWNWIRQRPGRELEWMGYWTGGTKYNPAFQGRISISADTAKNQFSLQLTSMTTEDTAVYYCARDRDRRVPHAYGYWGQGTLVTVSS VL: SYVLTQLPSKNVTLKQPAHITCGGDNIGSKSVHWYQQKLGQAPVLIIYYDSSRPTGIPERFSGANSGNTATLTISGALAEDEADYYCQVWDSSAKASVFGGGTHLTVL
7.88 | 5.89 | 14.6 | 21.4 | 50.2 pg/mL | 1340 pg/mL | 1470 pg/mL | 2.01 | 0.7 | 1.72 | PMX182 (monospecific anti-canine CD3, canine IgG-B effector function deficient Fc) (antibody) heavy: EVQLVESGGDLVKPGGSLRLSCVTSGFTFSNYHMNWVRQAPGKGLQWVAYINSGGSSTSYADAVKGRFTISRDNAKNTLYLQMNSLRAEDTAMYYCASDWDYCADDTCEGMGYWGHGTSLFVSSASTTAPSVFPLAPSCGSTSGSTVALACLVSGYFPEPVTVSWNSGSLTSGVHTFPSVLQSSGLYSLSSMVTVPSSRWPSETFTCNVAHPASKTKVDKPVPKRENGRVPRPPDCPKCPAPESLGGPSVFIFPPKPKDTLLIARTPEVTCVVVDLGREDPEVQISWFVDGKQMQTAKTQPREEQFNGTYRVVSVLPIGHQDWLKGKQFTCKVNHIGLPSPIERTISKARGQAHQPSVYVLPPSREELSKNTVSLTCLIKDFFPPDIDVEWQSNGQQEPESKYRTTPPQLDEDGSYFLYSKLSVDKSRWQRGDTFICAVMHEALHNHYTQKSLSHSPGK VL: SYVLTQLPSKNVTLKQPAHITCGGDNIGSKSVHWYQQKLGQAPVLIIYYDSSRPTGIPERFSGANSGNTATLTISGALAEDEADYYCQVWDSSAKAWVFGEGTQLTVL
10.4 | 23 | 6.6 | 17.1 | 34.8 pg/mL | 160 pg/mL | 2080 pg/mL | 0.92 | 1.41 | 0.94 | PMX196 (monospecific anti-canine CD3, canine IgG-B effector function deficient Fc) (antibody, V domains shown) VH: ELTLQESGPGLVKPSQTLSLTCVVSGGSVTSSYYWNWIRQRPGRGLEWMGYWTGSTIYNPAFQGRISITADTAKNQFSLQLSSMTTEDTAVYFCVRERRMAFGSWGQGTLVIVSS VL: SYVLTQLPSKSVTLKQPAHITCGGDNIGRKSVHWYQQKLGQAPVLIISFDNNRPTGIPERFSGANSGNTATLTISGALAEDEADYYCQVWDSSAKASVFGGGTHLTVL
10.4 | 28.8 | 12.3 | 28.2 | 74.8 pg/mL | 322 pg/mL | 3290 pg/mL | 2.42 | 1.47 | 1.64 | PMX184 (monospecific anti-canine CD3, canine IgG-B effector function deficient Fc) (antibody, V domains shown) VH: ELTLQESGPGLVKPSQTLSLTCGVSGGSVTRSHYWNWVRQRPGRGLEWMGYWTGSTNYNPAFQGRISITADTAKNQFSLQLRSMTTEDTAVYFCARETTIPTFFFDYWGQGTLVTVSS VL: SYVLTQLPSKNVTLKQPAHITCGGDNIGSKSVHWYQQKLGQAPVLIIYYDSSRPTGIPERFSGANSGNTATLTISGALAEDEADYYCQVWDSGAKAWVFGEGTQLTVL

Same assay, conditions: not given

Ki67 Proliferation, Day 9, PB | Binder
0.31 | PMX179 (monospecific anti-canine CD3, canine IgG-B effector function deficient Fc) (antibody, V domains shown) VH: ELALQESGPGLVRPSQTLSLTCVVSGGSVTRSYYWNWIRQRPGRGLEWMGYWTGTTIYNPAFQGRISITVDTAKNQFSLHLISMTTEDTAVYYCGREGGSSLGAIAYWGQGTRVTVSS VL: SYVLTQLPSKNVTLKQPAHITCGGDNIGSKSVHWYQQKLGQAPVLIIYYDSSRPTGIPERFSGANSGNTATLTISGALAEDEADYYCQVWDSSAKAAVFGGGTHLTVL
0.48 | PMX183 (monospecific anti-canine CD3, canine IgG-B effector function deficient Fc) (antibody, V domains shown) VH: ELTLQESGPGLVKPSQTLSLTCVVSGGSVTNSYYWNWIRQRPGRELEWMGYWTGGTKYNPAFQGRISISADTAKNQFSLQLTSMTTEDTAVYYCARDRDRRVPHAYGYWGQGTLVTVSS VL: SYVLTQLPSKNVTLKQPAHITCGGDNIGSKSVHWYQQKLGQAPVLIIYYDSSRPTGIPERFSGANSGNTATLTISGALAEDEADYYCQVWDSSAKASVFGGGTHLTVL
1.55 | PMX182 (monospecific anti-canine CD3, canine IgG-B effector function deficient Fc) (antibody) heavy: EVQLVESGGDLVKPGGSLRLSCVTSGFTFSNYHMNWVRQAPGKGLQWVAYINSGGSSTSYADAVKGRFTISRDNAKNTLYLQMNSLRAEDTAMYYCASDWDYCADDTCEGMGYWGHGTSLFVSSASTTAPSVFPLAPSCGSTSGSTVALACLVSGYFPEPVTVSWNSGSLTSGVHTFPSVLQSSGLYSLSSMVTVPSSRWPSETFTCNVAHPASKTKVDKPVPKRENGRVPRPPDCPKCPAPESLGGPSVFIFPPKPKDTLLIARTPEVTCVVVDLGREDPEVQISWFVDGKQMQTAKTQPREEQFNGTYRVVSVLPIGHQDWLKGKQFTCKVNHIGLPSPIERTISKARGQAHQPSVYVLPPSREELSKNTVSLTCLIKDFFPPDIDVEWQSNGQQEPESKYRTTPPQLDEDGSYFLYSKLSVDKSRWQRGDTFICAVMHEALHNHYTQKSLSHSPGK VL: SYVLTQLPSKNVTLKQPAHITCGGDNIGSKSVHWYQQKLGQAPVLIIYYDSSRPTGIPERFSGANSGNTATLTISGALAEDEADYYCQVWDSSAKAWVFGEGTQLTVL
0 | PMX196 (monospecific anti-canine CD3, canine IgG-B effector function deficient Fc) (antibody, V domains shown) VH: ELTLQESGPGLVKPSQTLSLTCVVSGGSVTSSYYWNWIRQRPGRGLEWMGYWTGSTIYNPAFQGRISITADTAKNQFSLQLSSMTTEDTAVYFCVRERRMAFGSWGQGTLVIVSS VL: SYVLTQLPSKSVTLKQPAHITCGGDNIGRKSVHWYQQKLGQAPVLIISFDNNRPTGIPERFSGANSGNTATLTISGALAEDEADYYCQVWDSSAKASVFGGGTHLTVL
0.75 | PMX184 (monospecific anti-canine CD3, canine IgG-B effector function deficient Fc) (antibody, V domains shown) VH: ELTLQESGPGLVKPSQTLSLTCGVSGGSVTRSHYWNWVRQRPGRGLEWMGYWTGSTNYNPAFQGRISITADTAKNQFSLQLRSMTTEDTAVYFCARETTIPTFFFDYWGQGTLVTVSS VL: SYVLTQLPSKNVTLKQPAHITCGGDNIGSKSVHWYQQKLGQAPVLIIYYDSSRPTGIPERFSGANSGNTATLTISGALAEDEADYYCQVWDSGAKAWVFGEGTQLTVL
